Results as given in patent publication US10961298 (GOVERNMENT OF THE UNITED STATES AS REPRESENTED BY THE …, dated 2021).

Assays:
[1] = molecular target: T1, Hcp peptide IKYLQIKLKHVLVSS (Acinetobacter baumannii); test: peptide ELISA, peptide on plate, anti-mouse HRP, OD450
T1 peptide: IKYLQIKLKHVLVSS

[2] = molecular target: T2, Hcp peptide IRQPKSATSSSVGGH (Acinetobacter baumannii); test: as above
T2 peptide: IRQPKSATSSSVGGH

[3] = molecular target: T3, Hcp peptide HTAERVEHSDMVFVK (Acinetobacter baumannii); test: as above
T3 peptide: HTAERVEHSDMVFVK

[4] = molecular target: T4, Hcp peptide RANGDKRIKYLQIKL (Acinetobacter baumannii); test: as above
T4 peptide: RANGDKRIKYLQIKL

[5] = molecular target: T5, Hcp peptide DGESRDSEHKGWLEV (Acinetobacter baumannii); test: as above
T5 peptide: DGESRDSEHKGWLEV

[6] = molecular target: T6, Hcp peptide EVQIDFYRANGDKRI (Acinetobacter baumannii); test: as above
T6 peptide: EVQIDFYRANGDKRI

[7] = molecular target: T7, Hcp peptide EEGVPTEAFGLKYAA (Acinetobacter baumannii); test: as above
T7 peptide: EEGVPTEAFGLKYAA

[8] = molecular target: T8, Hcp peptide AVEWTYNQQDINGTA (Acinetobacter baumannii); test: as above
T8 peptide: AVEWTYNQQDINGTA

[9] = molecular target: T9, Hcp peptide LKHVLVSSVTPTVNE (Acinetobacter baumannii); test: as above
T9 peptide: LKHVLVSSVTPTVNE

[10] = molecular target: T10, Hcp peptide QQDINGTAKGAVTKK (Acinetobacter baumannii); test: as above
T10 peptide: QQDINGTAKGAVTKK

[11] = molecular target: T11, Hcp peptide SVTPTVNEEGVPTEA (Acinetobacter baumannii); test: as above
T11 peptide: SVTPTVNEEGVPTEA

[12] = molecular target: T12, Hcp peptide #1 MKDIYVEFRGKYKVD (Acinetobacter baumannii); test: as above
T12 construct: also called amino terminus peptide; N-terminus peptide
T12 peptide: MKDIYVEFRGKYKVD

[13] = molecular target: T13, Hcp peptide HSDMVFVKDLDATSP (Acinetobacter baumannii); test: as above
T13 peptide: HSDMVFVKDLDATSP

[14] = molecular target: T14, Hcp peptide KDLDATSPKLWEACS (Acinetobacter baumannii); test: as above
T14 peptide: KDLDATSPKLWEACS

[15] = molecular target: T15, Hcp peptide KWSLSNNTASYAA (Acinetobacter baumannii); test: as above
T15 peptide: KWSLSNNTASYAA

[16] = molecular target: T16, Hcp peptide VNSWSHNIRQPKSAT (Acinetobacter baumannii); test: as above
T16 peptide: VNSWSHNIRQPKSAT

[17] = molecular target: T17, Hcp peptide AFGLKYAAVEWTYNQ (Acinetobacter baumannii); test: as above
T17 peptide: AFGLKYAAVEWTYNQ

[18] = molecular target: T18, Hcp peptide PKLWEACSAGYTFDE (Acinetobacter baumannii); test: as above
T18 peptide: PKLWEACSAGYTFDE

[19] = molecular target: T19, Hcp peptide EHKGWLEVNSWSHN (Acinetobacter baumannii); test: as above
T19 peptide: EHKGWLEVNSWSHN

[20] = molecular target: T20, Hcp peptide AKGAVTKKWSLSNNT (Acinetobacter baumannii); test: as above
T20 peptide: AKGAVTKKWSLSNNT

[21] = molecular target: T21, Hcp peptide TSSSVGGHTAERVEH (Acinetobacter baumannii); test: as above
T21 peptide: TSSSVGGHTAERVEH

[22] = molecular target: T22, Hcp peptide SAGYTFDEVQIDFYR (Acinetobacter baumannii); test: as above
T22 peptide: SAGYTFDEVQIDFYR

[23] = molecular target: T23, Hcp peptide FRGKYKVDGESRDSE (Acinetobacter baumannii); test: as above
T23 peptide: FRGKYKVDGESRDSE

[24] = molecular target: T24, Hcp (hemolysin co-regulated protein, T6SS needle protein) of Acinetobacter baumannii AB5075, recombinant, … (Acinetobacter baumannii (strain AB5075)); test: screening of hybridoma clones for binding to Hcp antigen
T24 construct: Cloned NcoI/XhoI into pET22b, overexpressed in E. coli and purified on a nickel column; also called full-length Hcp protein; purified Hcp protein
T24 chain: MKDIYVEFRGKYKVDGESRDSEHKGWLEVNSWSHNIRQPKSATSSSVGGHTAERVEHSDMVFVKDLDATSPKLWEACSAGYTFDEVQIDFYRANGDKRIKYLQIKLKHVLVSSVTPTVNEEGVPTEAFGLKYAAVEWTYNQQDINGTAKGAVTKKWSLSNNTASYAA

Measured: binding result

B1: 13F7 anti-Hcp monoclonal antibody (antibody, V domains shown)
VH: EVQLQESGGGLVQPGGSMKLSCVVSGFIFSSYWMSWVRQSPEKGLEWLAEIRLKSDNYVTLYAESVKGKFTISRDDSKSRLFLQMNTLRAEDTGIYYCTRSYHALDYWGQGTSVTVSS
VL: DIVMAQSPSSLNVSAGDKVTMSCKSSQSLLNSGNQRNYLAWYQQKPGQPPKLLIYGASTRESGVPDRFTGSGSGTDFTLTISSVQAEDLAVYYCQNDHIYPFTFGSGTKLEIK
notes: Mouse monoclonal antibody from a hybridoma; also called αHcp; 13F7 αHcp antibody
binds: [12] | [24]
no binding: all other assays above
